This note sets out measurements from article PMC7148328.

This data set concerns the target T1, His-Dbv6 (Nonomuraea gerenzanensis) (UniProt Q7WZ85).
T1 sequence: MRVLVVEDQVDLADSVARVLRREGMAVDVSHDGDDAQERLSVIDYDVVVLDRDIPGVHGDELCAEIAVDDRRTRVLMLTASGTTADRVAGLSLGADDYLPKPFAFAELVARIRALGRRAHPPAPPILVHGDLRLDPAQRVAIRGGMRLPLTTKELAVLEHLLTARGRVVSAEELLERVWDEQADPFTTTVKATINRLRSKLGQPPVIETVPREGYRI
Nature of the data set: EMSA. Particulars: 12.5 mM Tris-HCl pH 7.5, 10% glycerol, 62.5 mM KCl, 0.75 mM DTT, 5 mM MgCl2, 20 uL, 4 C; 2.8-14 ug Dbv6 (legend: 0.5-2 mM), 100 ng DNA (legend: …). In general terms: Mobility shift assays separate free from complexed probe on a gel.

On to “CCTTCAGCAAACCTCCGAACGGCGACACTATGGCCATGCGGGACTCCTCTCACACGCGCACGCAAGTCAGCGACCTCAATCGTGCTGAGCGGAGCCGATGTCCACGAGTGGGTCCAACTGAACAGTTCGCGCGCTTGGACGCGTTCACCGGTGGTGGTGACCAAGCGTTCACCTGGAC (double strand) [updbv23]”, for which the binding result is listed as “binds”.

For “GCAGGTCGGAAGGGACATCTGTTCGGTGGGTGCCGGGCGCTCCATGGCAACTCCCGCGTCATCGAGGTGCTGCGCAGCCCTCGAAGGTCGCACCCGCGGACGAGAGCCTGCTTGATCGCAAGCGTGCTCAACGGACTCGATGTCTACAAGCCGGTCCAGGTGAACGCTTGGTCAC (double strand) [updbv24]”, the binding result is given as “binds”.

With “GCAGGAATGGGAAAGGATCTTGCGCGGAGTGCCGCCGCATTGGGGCACCGTTGTCGCGAGATGCGCCAGGGATCATGCCCAGATCTGGGCAGCGTTCGCGGATCGCCTGGAGGGGCGGGCGACCGATCTGGCCGCTGGATGAGCACGAGTGGATGAGCCGGGCGGCCGTATGTAGAGCGACGGGACCAGGACCAGATCAGGCACACGGCAAACCAAGTCGACGAACCGCTTGGGGGACGAGCAAGAGTGCTGTTCGGGCGAGATCGTGAACTGAAGAGTCTGACGAGGTTGCTCGATTC (double strand) [updbv3]”, the binding entry is recorded as “binds”.

In the case of “TGAAGGCGACGATCAACCGGCTGCGCTCGAAGCTCGGCCAGCCGCCGGTGATCGAAACCGTCCCGCGCGAGGGATATCGCATCTGATCCGCGCGGTCACAGAGCGGTCACACGTTCTCTGACCCTCGTGTCACCTTCTGCTCCGTAGAACTGGTGTCAGATCACCAGACTGGAGGAGAGGGATGAGGA (double strand) [updbv7]”, the binding result is given as “binds”.

Regarding “CATTCGTGTCGCCGTCTCGATCGGGGGCTGTCAGTCTGACACCATAGCTCGCGTCCGGTCGATCCTCGAGTTGCCGTCGGGGACGGGCGGGACGTGCCAGCCGTGGAAGCGCAGTGCCTCGGTGAGCCGGCCGGTGTCCTCCGGGCGCACGGAGACCTCGACCA (double strand) [updbv6]”, the binding result is listed as “no binding”.

With “GCATCGGTCTTATCCGAAACTAGGGGGGTGGATGTCCGGGATAGGGGGTGGTTCGACCTGCACAGCCTCCTTTAACCTTCCGGAGGAAGGCCTAACCGAAAGTCGGAGTGATCGGAATGCTAACGGGAAGCGTTCTGCAATTCGATGAGGTAGACGGCTACGGATTCGCGGCGACAGCGTCCAATTCTTTGCCGCGTGGAGTTGCCGAAGAAAAGAGGATGCGACG (double strand) [updbv4]”, the binding entry is “binds”.
